Results: patent US20060140967A1 (US Dept. of Health and Human Services, published 2006)

B1: TARP-27-35 (peptide)
peptide: FVFLRNFSL
B2: TARP-27-35 with substitution with Ala at position 3 (peptide)
peptide: FVALRNFSL
B3: TARP-2-9 (peptide)
peptide: QMFPPSPL
notes: The limits should be checked against the listing
B4: TARP-22-30 (peptide)
peptide: RLEHTFVFL
B5: TARP-27-35-2L (peptide)
peptide: FLFLRNFSL
B6: TARP-27-35-9V (peptide)
peptide: FVFLRNFSV
B7: TARP-29-37 (peptide)
peptide: FLRNFSLML
notes: also called wild-type peptide
B8: TARP-29-37-3A (peptide)
peptide: FLANFSLML
B9: TARP-29-37-9V (peptide)
peptide: FLRNFSLMV

Biological target: T1, HLA-A2.1 molecules on TAP-deficient T2 cells (human)
T1 construct: MHC class I molecule on T2 cells; also called HLA-A2 molecules
Assay: T2 binding assay, flow cytometry; reference TARP-29-37
Experimental: (§1) T2-binding assay. […] After washing, cells were stained with FITC-labeled goat anti-mouse Ig (PharMingen, San Diego, Calif.) and the level of HLA-A2.1 expression was measured by flow cytometry. HLA-A2.1 expression was quantified as fluorescence index (FI) according to the formula: FI=(mean fluorescence intensity with peptide-mean fluorescence intensity without peptide)/mean fluorescence intensity without peptide.
(§2) To determine HLA-A2.1 epitopes from the TARP, four different wild-type peptides were first predicted based on the anchor residues (FIG. 1B) and their binding affinities to HLA-A2.1 molecules were measured by the T2-binding assay.

| Binder | fold higher binding affinity than TARP-29-37 [fold] |
| --- | --- |
| B1 | ~10 |

Biological target: T1, HLA-A2.1 molecules on TAP-deficient T2 …
Assay: T2 binding assay, flow cytometry with anti-HLA-A2.1
Experimental: as §1, §2

| Binder | binding result |
| --- | --- |
| B2 | no binding |
| B3 | no binding |
| B4 | no binding |

Biological target: T1, HLA-A2.1 molecules on TAP-deficient T2 …
Assay: T2 binding assay, flow cytometry
Experimental: as §1

| Binder | binding result |
| --- | --- |
| B5 | binds |
| B6 | binds |
| B7 | binds |
| B8 | binds |
| B9 | binds |
